In patent US20240239893A1, “METHODS AND COMBINATIONS FOR THE TREATMENT OF CANCER USING IMMUNE CHECKPOINT INHIBITOR ANTIBODIES” (AstraZeneca AB, priority 2020, published 2024):

Experiments:
[1] = test system: advanced hepatocellular carcinoma (HCC); experiment: Randomized open-label multi-center clinical study of durvalumab and tremelimumab (Example 2): efficacy (ORR, OS, PFS); assay type: in vivo, human patients; settings: for ORR, % / Median (95% CI) OS, mo: Table 1, per study arm; for Median (95% CI) OS, mo: 95% CI given; for Median PFS (95% CI): patients with advanced HCC, Kaplan-Meier (FIG. 11)
Excerpt: Primary analysis of all tumor assessment-related endpoints was based on BICR assessments according to RECIST v1.1.
Evaluation of target lesions were classified as follows: • Complete Response—Disappearance of all target lesions. Any pathological lymph nodes (whether target or non-target) must have reduction in short axis to <10 mm (the sum may not be “0” if there are target nodes). • Partial Response—At least a 30% decrease in the sum of the diameters of target lesions, taking as reference the baseline sum diameters. • Progressive Disease—At least a 20% increase in the sum of diameters of target lesions, taking as reference the smallest sum on study (this includes the baseline sum if that is the smallest on study). […] (Note: The appearance of one or more new lesions may be considered progression.) • Stable Disease—Neither sufficient shrinkage to qualify for PR nor sufficient increase to qualify for PD, taking as reference the smallest sum of diameters while on study.
The study disclosed below is a randomized, open-label, multi-center, global, clinical study to assess the efficacy and safety of durvalumab monotherapy and durvalumab plus tremelimumab combination therapy versus sorafenib in the treatment of immune checkpoint inhibitor-naïve patients with HCC who progressed on, were intolerant to, or refused sorafenib. In the foregoing disclosure, a flat-dose regimen of 1500 mg (approximately equivalent to 20 mg/kg) of durvalumab plus 300 mg (equivalent to 4 mg/kg) of tremelimumab was used in this study.
The study population included patients 18 years of age or older with advanced HCC, Barcelona Clinic Liver Cancer Stage B (not eligible for locoregional therapy) or stage C, and Child-Pugh A classification liver disease. Patients must not have received any prior systemic therapy for HCC. Patients were stratified according to macrovascular invasion (yes versus no), etiology of liver disease (hepatitis B virus [confirmed HBV] versus hepatitis C virus [confirmed HCV] versus others), and performance status (Eastern Cooperative Oncology Group [ECOG] 0 versus 1).
A total of 332 patients were enrolled (T300+D, n=75; durvalumab, n=104; tremelimumab, n=69; T75+D, n=84). Patients were randomized in an equal ratio to groups treated with durvalumab 1500 mg monotherapy (D), tremelimumab 750 mg monotherapy (T), combination therapy with durvalumab 1500 mg plus tremelimumab 75 mg×4 doses (T75+D) followed by durvalumab Q4W, combination therapy with durvalumab 1500 mg plus tremelimumab 300 mg×1 dose (T 300+D) followed by durvalumab Q4W. Upon closure to further enrollment into the T75+D arm, patients were randomized in an equal ratio to groups treated with D, T300+D, and Sorafenib. Durvalumab and tremelimumab were administered via intravenous (IV) infusion every 4 weeks (Q4W). Sorafenib was administered orally BID (see FIGS. 3 and 4).
(§1) Tremelimumab 750 mg via IV infusion Q4W starting at Week 0 for seven doses and then Q12W until confirmed PD, unacceptable toxicity, or any discontinuation criterion was met. (Note: If a patient's weight decreased to ≤30 kg, the patient received weight-based dosing of tremelimumab 10 mg/kg Q4W, until the weight increased to >30 kg, at which point the patient received the flat dose of tremelimumab 750 mg Q4W).
as §1, with “• Durvalumab 1500” for “Tremelimumab 750”, “0” for “0 for seven doses and then Q12W”, “durvalumab 20” for “tremelimumab 10”, “durvalumab 1500” for “tremelimumab 750”, “Q4W.) […]” for “Q4W).”

[2] = test system: peripheral blood T cell receptors (T-cell clones); experiment: Molecular analysis of peripheral blood T cell receptors (TCR clonality, immunoSeq) on day 29; assay type: in vivo, human patients; settings: for Median expanded T cell clones at Day 29, n: Day 29, first cycle of Q4W dosing, immunoSeq paired samples
Excerpt: This trend was not seen with monotherapy D or the lower dose T combination (T75+D) (FIG. 15). Additionally, greater clonal expansion of T-cells was associated with better OS and seen in D+T combination arms (FIG. 16).

[3] = test system: proliferating CD8+ Ki67+ T cells; experiment: Exposure-response model: tremelimumab trough concentration vs change from baseline of CD8+ Ki67+ T cell counts; assay type: in vivo, patients with uHCC
Experimental: (§2) Finally, an exposure-response model was developed to describe the relationship between tremelimumab exposure and proliferating CD8+ Ki67+ T cells in patients with uHCC. Relationships between tremelimumab trough concentration after the first dose (Cmin) and the maximum change from baseline (CFB) for CD8+ Ki67+ T cell counts were evaluated using linear and non-linear regression models. Covariate effects were evaluated on the model intercept and the drug effect (Emax) using a stepwise search approach. The relationship between CD8+Ki67+ T cell count CFB and tremelimumab trough concentration was best described by an Emax model. The only statistically significant and well estimated covariate effect was the baseline CD8+ Ki67+ T cell count on Emax. The maximum effect was higher in patients with lower baseline CD8+ Ki67+ T cell counts and lower in patients with higher baseline CD8+ Ki67+ T cell counts. At the 10th, median, and 90th percentiles of baseline CD8+(3, 9, and 25 cells/uL), the maximum effect is 593%, 341%, and 77.9% change from baseline, respectively.

[4] = Tremelimumab trough concentration after the first dose (Cmin); assay type: in vivo, patients with uHCC; settings: 300 mg tremelimumab
Experimental: as §2

durvalumab: human monoclonal antibody directed against human PD-L1; in Example 2 given as 1500 mg monotherapy Q4W (D)
ORR, % [1]: 10.6%
Median (95% CI) OS, mo [1]: 13.6 mo
Median PFS (95% CI) [1]: 2.07 (1.84-2.83) months
clonal expansion of T cells in responders compared to non-responders ([2]; Day 29 (FIG. 15)): not seen
Median expanded T cell clones at Day 29, n [2]: 32 (13, 46)

B1: tremelimumab: anti-CTLA-4 antibody; in Example 2 given as 750 mg monotherapy Q4W for seven doses then Q12W (T) (antibody)
VH: GVVQPGRSLRLSCAASGFTFSSYGMHWVRQAPGKGLEWVAVIWYDGSNKYYADSVKGRFTISRDNSKNTLYLQMNSLRAEDTAVYYCARDPRGATLYYYYYGMDVWGQGTTVTVSSASTKGPSVFPLAPCSRSTSESTAALGCLVKDYFPEPVTVSWNSGALTSGVH
VL: PSSLSASVGDRVTITCRASQSINSYLDWYQQKPGKAPKLLIYAASSLQSGVPSRFSGSGSGTDFTLTISSLQPEDFATYYCQQYYSTPFTFGPGTKVEIKRTVAAPSVFIFPPSDEQLKSGTASVVCLLNNFYPREAKV
modifications: heavy chain variable region; light chain variable region
ORR, % [1]: 7.2%
Median (95% CI) OS, mo [1]: 15.1 mo
Median PFS (95% CI) [1]: 2.69 (1.87-5.29) months
maximum effect (Emax), change from baseline of CD8+ Ki67+ T cell count ([3]; 10th percentile of baseline CD8+ (3 cells/uL)): 593%
maximum effect (Emax), change from baseline of CD8+ Ki67+ T cell count ([3]; 90th percentile of baseline CD8+ (25 cells/uL)): 77.9%
estimated half-maximal effective concentration (EC50) ([3]; Emax model, CD8+Ki67+ T cell count change from baseline vs tremelimumab Cmin): 5.24 µg/mL
maximum effect (Emax), change from baseline of CD8+ Ki67+ T cell count ([3]; median baseline CD8+ (9 cells/uL)): 341%
Median expanded T cell clones at Day 29, n [2]: 100 (50, 160)
median Cmin (trough concentration after the first dose) [4]: 12900 ng/mL
